Results published in patent US20260226133A1 (ANGELES THERAPEUTICS, published 2026).

Experiments:
TAJ/TNFRSF19 = biological target: T1, TAJ/TNFRSF19 (UniProt Q9NS68 30-423, limits assumed); test: Malibu-Glo assay; NLuc fusion supernatant on LNCaP cells, control 293FT cells
T1 construct: whole, on cells
T1 sequence (looked up): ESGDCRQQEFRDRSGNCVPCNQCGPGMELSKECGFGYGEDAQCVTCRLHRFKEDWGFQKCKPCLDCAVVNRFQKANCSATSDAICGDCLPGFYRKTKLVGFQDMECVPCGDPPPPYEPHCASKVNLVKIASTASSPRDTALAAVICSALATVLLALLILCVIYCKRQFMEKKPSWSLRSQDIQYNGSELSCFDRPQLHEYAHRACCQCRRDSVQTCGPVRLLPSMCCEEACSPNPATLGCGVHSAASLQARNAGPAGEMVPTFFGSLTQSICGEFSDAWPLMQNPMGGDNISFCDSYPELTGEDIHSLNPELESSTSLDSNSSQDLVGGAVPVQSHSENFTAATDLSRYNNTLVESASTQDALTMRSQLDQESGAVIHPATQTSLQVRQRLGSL

CD20 = biological target: T2, CD20 (UniProt P11836 1-297, limits assumed); test: Malibu-Glo assay; NLuc fusion supernatant on RAJI cells, control K562 cells
T2 construct: whole, on cells
T2 sequence (looked up): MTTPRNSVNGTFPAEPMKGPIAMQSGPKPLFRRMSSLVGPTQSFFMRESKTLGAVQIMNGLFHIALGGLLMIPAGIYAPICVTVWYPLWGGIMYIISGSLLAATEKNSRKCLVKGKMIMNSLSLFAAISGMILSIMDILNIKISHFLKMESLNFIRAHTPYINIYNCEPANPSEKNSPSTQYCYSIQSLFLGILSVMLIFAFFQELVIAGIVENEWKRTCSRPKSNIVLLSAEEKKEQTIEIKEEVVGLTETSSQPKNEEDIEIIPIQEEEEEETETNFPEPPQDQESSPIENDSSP

STEAP2 = biological target: T3, STEAP2 (UniProt Q8NFT2 1-490, limits assumed); test: Malibu-Glo assay; NLuc fusion supernatant on LNCaP cells, control K562 cells
T3 construct: whole, on cells
T3 sequence (looked up): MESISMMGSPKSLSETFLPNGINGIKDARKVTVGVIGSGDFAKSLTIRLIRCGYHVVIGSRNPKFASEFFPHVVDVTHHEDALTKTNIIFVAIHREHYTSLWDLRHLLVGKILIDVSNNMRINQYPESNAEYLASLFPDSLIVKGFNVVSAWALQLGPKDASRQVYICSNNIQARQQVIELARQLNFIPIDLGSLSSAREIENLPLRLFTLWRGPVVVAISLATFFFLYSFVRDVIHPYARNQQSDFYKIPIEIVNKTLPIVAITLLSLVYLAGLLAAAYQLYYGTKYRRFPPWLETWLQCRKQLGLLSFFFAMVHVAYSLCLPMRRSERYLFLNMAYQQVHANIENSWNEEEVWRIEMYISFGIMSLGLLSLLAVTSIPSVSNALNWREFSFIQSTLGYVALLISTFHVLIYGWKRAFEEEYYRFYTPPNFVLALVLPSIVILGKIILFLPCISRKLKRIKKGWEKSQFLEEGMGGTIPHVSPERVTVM

DLL3 = biological target: T4, DLL3 (UniProt Q9NYJ7 27-618, limits assumed); test: Malibu-Glo assay; NLuc fusion supernatant on NCI-H82 cells, control K562 cells
T4 construct: whole, on cells
T4 sequence (looked up): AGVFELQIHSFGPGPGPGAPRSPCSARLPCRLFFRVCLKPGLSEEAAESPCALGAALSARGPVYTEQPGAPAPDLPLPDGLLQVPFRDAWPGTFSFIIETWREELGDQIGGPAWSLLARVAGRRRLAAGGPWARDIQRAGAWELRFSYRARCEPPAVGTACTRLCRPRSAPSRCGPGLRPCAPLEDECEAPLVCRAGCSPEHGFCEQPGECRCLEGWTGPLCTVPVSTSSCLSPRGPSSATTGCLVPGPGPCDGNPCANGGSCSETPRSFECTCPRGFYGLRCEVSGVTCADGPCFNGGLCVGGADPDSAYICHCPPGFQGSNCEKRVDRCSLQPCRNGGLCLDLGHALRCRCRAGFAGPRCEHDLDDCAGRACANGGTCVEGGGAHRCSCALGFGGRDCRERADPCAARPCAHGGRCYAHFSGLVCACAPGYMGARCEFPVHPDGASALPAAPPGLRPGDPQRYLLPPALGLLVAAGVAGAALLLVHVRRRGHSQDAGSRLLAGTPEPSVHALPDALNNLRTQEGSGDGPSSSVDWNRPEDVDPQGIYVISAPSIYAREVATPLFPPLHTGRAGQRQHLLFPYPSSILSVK

BCMA [1] = biological target: T5, BCMA (UniProt Q02223 1-184, limits assumed); test: Malibu-Glo assay; NLuc fusion supernatant on L363 cells, control Jurkat cells
T5 construct: whole, on cells; also called TNF receptor family member B cell maturation (BCMA)
T5 sequence (looked up): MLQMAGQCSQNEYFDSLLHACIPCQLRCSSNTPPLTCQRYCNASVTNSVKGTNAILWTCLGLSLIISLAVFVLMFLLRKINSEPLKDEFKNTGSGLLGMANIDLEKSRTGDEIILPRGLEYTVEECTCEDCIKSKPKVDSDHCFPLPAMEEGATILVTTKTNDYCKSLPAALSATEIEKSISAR

BCMA [2] = biological target: T5, BCMA; test: Malibu-Glo assay; NLuc fusion supernatant on H929 cells, control K562 cells
MSLN = biological target: T6, MSLN (UniProt Q13421 37-598, limits assumed); test: Malibu-Glo assay; NLuc fusion supernatant on SKOV3 cells, control Jurkat cells
T6 construct: whole, on cells; also called Mesothelin

CD19 = biological target: T7, CD19 (UniProt P15391 20-556, limits assumed); test: Malibu-Glo assay; NLuc fusion supernatant on RAJI cells, control Jurkat cells
T7 construct: whole, on cells
T7 sequence (looked up): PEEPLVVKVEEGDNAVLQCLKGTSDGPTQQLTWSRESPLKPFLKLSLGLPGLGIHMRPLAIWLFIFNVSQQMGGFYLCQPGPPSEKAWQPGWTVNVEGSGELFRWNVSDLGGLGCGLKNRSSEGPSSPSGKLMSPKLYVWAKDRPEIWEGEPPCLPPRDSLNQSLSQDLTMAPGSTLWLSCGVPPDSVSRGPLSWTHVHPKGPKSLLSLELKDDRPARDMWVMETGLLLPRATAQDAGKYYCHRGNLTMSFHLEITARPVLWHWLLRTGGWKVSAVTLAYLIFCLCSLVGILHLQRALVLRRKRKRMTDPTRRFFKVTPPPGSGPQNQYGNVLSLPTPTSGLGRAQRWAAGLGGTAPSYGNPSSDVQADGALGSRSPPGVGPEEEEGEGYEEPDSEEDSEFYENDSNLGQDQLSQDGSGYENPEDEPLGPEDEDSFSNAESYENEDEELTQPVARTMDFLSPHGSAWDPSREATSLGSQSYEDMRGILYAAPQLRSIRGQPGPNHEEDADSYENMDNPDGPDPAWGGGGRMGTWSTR

IL23R = biological target: T8, IL23R (UniProt Q5VWK5 24-629, limits assumed); test: Malibu-Glo assay; NLuc fusion supernatant on L363 cells, control K562 cells
T8 construct: whole, on cells
T8 sequence (looked up): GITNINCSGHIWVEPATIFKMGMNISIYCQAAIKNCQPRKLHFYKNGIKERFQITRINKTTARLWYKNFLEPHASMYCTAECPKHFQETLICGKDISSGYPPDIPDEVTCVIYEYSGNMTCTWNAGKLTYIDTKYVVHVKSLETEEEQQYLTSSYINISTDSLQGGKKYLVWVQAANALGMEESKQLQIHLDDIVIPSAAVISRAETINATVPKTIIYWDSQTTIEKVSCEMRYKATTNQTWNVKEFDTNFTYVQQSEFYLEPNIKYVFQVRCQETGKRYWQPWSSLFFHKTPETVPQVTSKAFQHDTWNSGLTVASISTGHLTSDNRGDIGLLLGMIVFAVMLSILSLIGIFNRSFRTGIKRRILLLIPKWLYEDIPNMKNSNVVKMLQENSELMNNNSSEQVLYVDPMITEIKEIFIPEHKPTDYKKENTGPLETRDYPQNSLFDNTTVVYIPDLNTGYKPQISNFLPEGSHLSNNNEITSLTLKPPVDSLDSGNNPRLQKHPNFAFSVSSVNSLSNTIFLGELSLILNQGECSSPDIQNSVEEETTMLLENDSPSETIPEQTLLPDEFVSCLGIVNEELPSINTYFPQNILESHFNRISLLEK

CD33 = biological target: T9, CD33 (UniProt P20138 18-364, limits assumed); test: Malibu-Glo assay; NLuc fusion supernatant on HL60 cells, control Jurkat cells
T9 construct: whole, on cells
T9 sequence (P20138 18-364 limits assumed): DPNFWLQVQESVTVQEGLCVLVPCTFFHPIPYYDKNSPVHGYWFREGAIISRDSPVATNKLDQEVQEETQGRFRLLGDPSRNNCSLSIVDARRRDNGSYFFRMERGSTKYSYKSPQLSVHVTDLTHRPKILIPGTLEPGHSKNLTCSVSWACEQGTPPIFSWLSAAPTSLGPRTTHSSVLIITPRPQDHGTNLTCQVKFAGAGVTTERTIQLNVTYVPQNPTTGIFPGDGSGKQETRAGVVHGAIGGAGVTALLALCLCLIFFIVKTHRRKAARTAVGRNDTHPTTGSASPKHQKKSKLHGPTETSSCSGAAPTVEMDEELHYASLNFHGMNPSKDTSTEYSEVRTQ

T6 sequence (Q13421 other isoform, or with tags, fused parts or gaps limits assumed): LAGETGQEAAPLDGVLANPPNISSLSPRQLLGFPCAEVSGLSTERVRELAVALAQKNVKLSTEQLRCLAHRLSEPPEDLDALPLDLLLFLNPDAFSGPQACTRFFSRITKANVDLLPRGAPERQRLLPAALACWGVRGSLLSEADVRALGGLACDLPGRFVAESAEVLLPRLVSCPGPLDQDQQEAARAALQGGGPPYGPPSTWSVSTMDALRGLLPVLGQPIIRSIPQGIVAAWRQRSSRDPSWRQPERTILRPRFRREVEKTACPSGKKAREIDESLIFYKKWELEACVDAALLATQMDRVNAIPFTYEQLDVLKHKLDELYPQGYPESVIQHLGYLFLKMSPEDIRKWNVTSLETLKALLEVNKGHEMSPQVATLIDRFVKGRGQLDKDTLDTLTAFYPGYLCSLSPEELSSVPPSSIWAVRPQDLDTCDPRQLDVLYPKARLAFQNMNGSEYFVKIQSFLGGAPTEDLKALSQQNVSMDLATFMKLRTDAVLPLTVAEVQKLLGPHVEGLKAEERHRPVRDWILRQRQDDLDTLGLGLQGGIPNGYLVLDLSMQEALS

B1: KN5-USC1-R3D scFv (TAJ), NLuc fusion (scFv)
chain: QIVLTQSPAIMSASPGEKVTMTCSASSSVSFMHWYQQKSGTSPKRWIYDTSTLASGVPARFGGSGSGTSYSLTISSMEAEDAATYYCQQWSSNPLTFGAGTKLELKRGGGGSGGGGSGGGGSQVQLQQSGPELVKPGASVRISCKASGYTFTSYYIHWVKQRPGQGLEWIGWIYPGNLNTKYNEKFKGKATLTADKSSSTAYMQLSSLTSEDSAVYFCARYDWYFDVWGAGTTVTVSS
- Fold Change (Luc activity, target cell line over control cell line) (TAJ/TNFRSF19): 4.35 fold

B2: huCD20-AT1 vHH (CD20), NLuc fusion (VHH)
VHH: EVQLLESGGGLVQPGGSLRLSCAASGRTFSMGWYRQAPGKGLEFVSAITYSGGSPYYADSVKGRFTISRDNSKNTVYLQMNSLRAEDTAVYYCAANPTYGSDWNAENWGQGTLVTVSS
- Fold Change (Luc activity, target cell line over control cell line) (CD20): 15.6 fold

B3: STEAP2-RGN-1162-USC1 scFv (STEAP2), NLuc fusion (scFv)
chain: QVQLQQSGPGLVKPSQTLSLTCAISGDSVSSNRAAWNWIRQSPSRGLQWLGRTYYRSKWYNDYAVSLRSRITINPVTSKNQVALHMNSVTPEDTAVYYCARAGIVVVPGPETFYYYDHGLDVWGQGTTVTVSSGGGGSGGGGSGGGGSDIQMTQSPSSLSASVGDRVTITCRASQSIRNYLNWYQQKPGKAPELLIHAASSLQSGVPSRFSGSGSGTDFTLTISSLQPEDFASYYCQQSYSAPPITFGQGTRLEIK
- Fold Change (Luc activity, target cell line over control cell line) (STEAP2): 27.4 fold

B4: DLL3-USC5 vHH (DLL3), NLuc fusion (VHH)
VHH: QVQLVESGGGVVQPGGSLRLSCAASFSGYGVSTMAWFRQAPGKGLEGVAAITVGSGNTYYADSVKGRFTISRDNSKNTVYLQMNSLRAEDTAMYYCAVGWLSGGSWHVPGRYNYWGQGTLVTVSS
- Fold Change (Luc activity, target cell line over control cell line) (DLL3): 1.7 fold

B5: hu-E59D-US3 vHH (BCMA), NLuc fusion (VHH)
VHH: EVQLVESGGGLVQPGGSLRLSCAASGRTFTMGWFRQAPGKGREFVAAISLSPTLAYYADSVKGRFTISRDNSKNTVVLQMNSLRAEDTAVYYCAADRKSVMSIRPDYWGQGTQVTVSS
- Fold Change (Luc activity, target cell line over control cell line) (BCMA [1]): 2 fold

B6: E59D-USC1 vHH (BCMA), NLuc fusion (VHH)
VHH: QVQLVESGGGLVQPGGSLRLSCAASGRTFTMGWYRQAPGKGLEFVSAISLSPTLAYYADSVKGRFTISRDNSKNTVVLQMNSLRAEDTALYYCAADRKSVMSIRPDYWGQGTLVTVSS
- Fold Change (Luc activity, target cell line over control cell line) (BCMA [2]): 2.57 fold

B7: huE59D-AT2 vHH (BCMA), NLuc fusion (VHH)
VHH: EVQLVESGGGLVQPGGSLRLSCAASGRTFTMGWYRQAPGKEREFVAAISLSPTLAYYADSVKGRFTISRDNSKNTVVLQMNSLRAEDTALYYCAADRKSVMSIRPDYWGQGTLVTVSS
- Fold Change (Luc activity, target cell line over control cell line) (BCMA [2]): 2.99 fold

B8: AT2-K65R vHH (MSLN), NLuc fusion (VHH)
VHH: QVQLVESGGGVVQPGGSLRLSCAASGLSFSTYTVAWFRQAPGKGLEGVAAIPYTSQHMVYTDSVRGRFTISRDNSKNTLYLQMNSLRAEDTAVYYCATDRRPGTSMLAINGYNRWGQGTTVTVSS
- Fold Change (Luc activity, target cell line over control cell line) (MSLN): 11.5 fold

B9: hu-mROO5-1 scFv (CD19), NLuc fusion (scFv)
chain: DIQMTQSPSSLSASVGDRVTITCKASDHINNWLAWYQQKPGQAPKLLIYGATTLETGVPSRFSGSGSGTDYTLTISSLQPEDFATYYCQQSWNTPWTFGQGTKLEIKRGGGGSGGGGSGGGGSQVQLQQPGAELVKPGASVKMSCKASGYAFSSYWINWMKQKPGQGLEWIGQIYPGDGDTNYNGKFKGRATLTADTSSSTAYMQLSSLTSEDSAVYFCARSITTVVGCAMDYWGQGTSVTVSS
- Fold Change (Luc activity, target cell line over control cell line) (CD19): 933 fold

B10: IL23R-SANG-11 scFv (IL23R), NLuc fusion (scFv)
chain: DIQMTQSPSSLSASVGDRVTITCQASENIYSFLAWYQQKPGKAPKLLIYSASKLAAGVPSRFSGSGSGTDFTLTISSLQPEDFATYYCQQTNRYSNPDIYNVFGQGTKLTVLGGGGGSGGGGSGGGGSEVQLVESGGGLVQPGGSLRLSCAASGIDFNSNYYMCWVRQAPGKGLEWIGCIYVGSHVNTYYANWAKGRFTISRDNSKNTVYLQMNSLRAEDTAVYYCATSGSSVLYFKFWGQGTLVTVSS
- Fold Change (Luc activity, target cell line over control cell line) (IL23R): 2.37 fold

B11: AT264-S30G vHH (CD33), NLuc fusion (VHH)
VHH: EVQLVESGGGSVQAGGSLRLSCAASGYTYGINCMGWFRQAPGKEREGVAVISTGGGRTDYRDSVKGRFTISQDNAKNTVYLQMNSLKPEDTAMYYCAGKTTYPGYGCGLGRSAYNYWGQGTQVTVSS
- Fold Change (Luc activity, target cell line over control cell line) (CD33): 28 fold
